Substrate: NCCCCNCCCN
Experiment: DCHBS/AAP peroxide-coupled kinetic assay; Km from Michaelis–Menten/inhibition fit
Assay type: biochemical, Bos taurus
Settings: TPQ (trihydroxyphenylalanine quinone), copper

B1: bovine serum amine oxidase (BSAO) (Bos taurus) (protein)
chain: REEGGVGSEEGVGKQCHPSLPPRCPSRSPSDQPWTHPDQSQLFADLSREELTTVMSFLTQQLGPDLVDAAQARPSDNCVFSVELQLPPKAAALAHLDRGSPPPAREALAIVFFGGQPQPNVTELVVGPLPQPSYMRDVTVERHGGPLPYYRRPVLLREYLDIDQMIFNRELPQAAGVLHHCCSYKQGGQKLLTMNSAPRGVQSGDRSTWFGIYYNITKGGPYLHPVGLELLVDHKALDPADWTVQKVFFQGRYYENLAQLEEQFEAGQVNVVVIPDDGTGGFWSLKSQVPPGPTPPLQFHPQGPRFSVQGNRVASSLWTFSFGLGAFSGPRVFDVRFQGERLAYEISLQEAGAVYGGNTPAAMLTRYMDSGFGMGYFATPLIRGVDCPYLATYMDWHFVVESQTPKTLHDAFCVFEQNKGLPLRRHHSDFLSHYFGGVAQTVLVFRSVSTMLNYDYVWDMVFYPNGAIEVKLHATGYISSAFLFGAARRYGNQVGEHTLGPVHTHSAHYKVDLDVGGLENWVWAEDMAFVPTAIPWSPEHQIQRLQVTRKQLETEEQAAFPLGGASPRYLYLASKQSNKWGHPRGYRIQTVSFAGGPMPQNSPMERAFSWGRYQLAITQRKETEPSSSSVFNQNDPWTPTVDFSDFINNETIAGKDLVAWVTAGFLHIPHAEDIPNTVTVGNGVGFFLRPYNFFDQEPSMDSADSIYFREGQDAGSCEINPLACLPQAATCAPDLPVFSHGGYPEY
notes: BSAO purified from bovine blood
Question: Which Km does the source give for B1 here?
Answer: 173.8 µM

From article PMC12802350, “Opposite effects of spermidine and GC7 in cell culture are dictated by distinct molecular targets” (Biochemical Journal, 2025)
